The target in test [1] is MBP-LIC1FL, full-length dynein light intermediate chain-1 (human, UniProt Q9Y6G9 1-523). Kind of test: ITC; 5 mM EGTA, 30 °C.
Test [2] addresses T1, WT_(ZIP+)/WT_(ZIP−), BICD2_(1–98) heterodimer with C-terminal ZIP+/ZIP− leucine zipper (mouse (cDNA, methods); called human in …, UniProt Q921C5-1 1-98; Q921C5-1 1-98).
T1 chain 1: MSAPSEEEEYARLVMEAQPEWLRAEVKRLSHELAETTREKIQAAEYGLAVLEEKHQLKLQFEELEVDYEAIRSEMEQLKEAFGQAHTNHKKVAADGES
T1 chain 2: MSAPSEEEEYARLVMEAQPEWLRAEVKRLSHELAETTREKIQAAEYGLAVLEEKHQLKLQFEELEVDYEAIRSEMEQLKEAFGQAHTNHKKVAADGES
Kind of test: ITC; one-site binding model (rejected, poor fit).

By Kd is commonly meant the equilibrium constant for the complex coming apart.

Sequence of MBP-LIC1FL, full-length dynein light intermediate chain-1 (Q9Y6G9 whole entry): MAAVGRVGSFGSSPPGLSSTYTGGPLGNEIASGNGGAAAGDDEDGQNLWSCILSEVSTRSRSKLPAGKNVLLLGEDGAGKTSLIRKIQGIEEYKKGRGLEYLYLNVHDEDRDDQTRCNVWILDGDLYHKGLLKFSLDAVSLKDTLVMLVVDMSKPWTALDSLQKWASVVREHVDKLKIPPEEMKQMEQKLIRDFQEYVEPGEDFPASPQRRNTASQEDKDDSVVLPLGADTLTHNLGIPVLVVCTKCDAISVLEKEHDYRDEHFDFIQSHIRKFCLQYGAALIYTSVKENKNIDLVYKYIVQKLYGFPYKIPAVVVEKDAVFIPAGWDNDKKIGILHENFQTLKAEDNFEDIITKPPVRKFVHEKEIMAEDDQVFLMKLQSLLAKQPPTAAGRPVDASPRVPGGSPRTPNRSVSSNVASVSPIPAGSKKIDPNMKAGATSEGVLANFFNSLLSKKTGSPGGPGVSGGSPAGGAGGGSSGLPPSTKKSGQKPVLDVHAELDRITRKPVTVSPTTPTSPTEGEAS

B1: NIN_(1–87), first EF-hand pair of Ninein (domain or fragment)
chain: MDEVEQDQHEARLKELFDSFDTTGTGSLGQEELTDLCHMLSLEEVAPVLQQTLLQDNLLGRVHFDQFKEALILILSRTLSNEEHFQE
Take B1: binding in test [1] was put at a Kd of 15.5 µM.

B2: FIP3_(206–270), EF-hand pair of Rab11 family-interacting protein 3 (domain or fragment)
chain: RLRAVFDALDGDGDGFVRIEDFIQFATVYGAEQVKDLTKYLDPSGLGVISFEDFYQGITAIRNGD
For B2, in test [1], binding was put at a Kd of 3.1 µM.

NMKAGATSEGVLANFFNSLLSKKTGS [LIC1_(433–458), amphipathic helix of the dynein light intermediate chain-1] returned a Kd in test [2] of 3 µM. That is a single-digit micromolar value.

Values taken from paper PMC7655957 (2020).
